pKd: −log10 of the molar value.
How the values were obtained:
[1] = target: drug: a monoclonal antibody of human IgG4 isotype (PandA assay); assay: PandA assay, mAb 1 ug/ml in monkey plasma
[2] = target: drug: a monoclonal antibody of human IgG4 isotype (PandA assay); assay: PandA assay, mAb 0.5 ug/ml in monkey plasma
[3] = target: drug: a monoclonal antibody of human IgG4 isotype (PandA assay); assay: PandA assay, mAb 0.75 ug/ml in monkey plasma
[4] = target: drug: a monoclonal antibody of human IgG4 isotype (PandA assay); assay: PandA assay, signal to noise against the negative control
[5] = target: drug: a monoclonal antibody of human IgG4 isotype (PandA assay); assay: PandA assay (PEG precipitation, acid dissociation, MSD plate, sulfo-TAG-drug), mAb 5 ug/ml in monkey plasma
[6] = target: humanized development candidate monoclonal antibody IgG4 (hIgG4); assay: Gyrolab, capture reagent, hIgG4 8 ng/ml
[7] = target: humanized development candidate monoclonal antibody IgG4 (hIgG4); assay: Gyrolab, capture reagent, hIgG4 40 ng/ml
[8] = target: humanized development candidate monoclonal antibody IgG4 (hIgG4); assay: Gyrolab, capture reagent, hIgG4 1.6 ng/ml
[9] = target: humanized development candidate monoclonal antibody IgG4 (hIgG4); assay: Gyrolab, capture reagent, hIgG4 200 ng/ml
[10] = target: humanized development candidate monoclonal antibody IgG4 (hIgG4); assay: Gyrolab, capture reagent, hIgG4 0.32 ng/ml
[11] = target: humanized development candidate monoclonal antibody IgG4 (hIgG4); assay: Gyrolab, capture reagent, hIgG4 1000 ng/ml
[12] = target: humanized development candidate monoclonal antibody IgG4 (hIgG4); assay: Gyrolab, capture reagent, hIgG4 5000 ng/ml
[13] = target: humanized development candidate monoclonal antibody IgG4 (hIgG4); assay: Gyrolab, capture reagent, hIgG4 8 ng/ml, against the blank
[14] = target: humanized development candidate monoclonal antibody IgG4 (hIgG4); assay: Gyrolab, capture reagent, hIgG4 40 ng/ml, against the blank
[15] = target: humanized development candidate monoclonal antibody IgG4 (hIgG4); assay: Gyrolab, capture reagent, hIgG4 1.6 ng/ml, against the blank
[16] = target: humanized development candidate monoclonal antibody IgG4 (hIgG4); assay: Gyrolab, capture reagent, hIgG4 200 ng/ml, against the blank
[17] = target: humanized development candidate monoclonal antibody IgG4 (hIgG4); assay: Gyrolab, capture reagent, hIgG4 0.32 ng/ml, against the blank
[18] = target: humanized development candidate monoclonal antibody IgG4 (hIgG4); assay: Gyrolab, capture reagent, hIgG4 1000 ng/ml, against the blank
[19] = target: humanized development candidate monoclonal antibody IgG4 (hIgG4); assay: Gyrolab, capture reagent, hIgG4 5000 ng/ml, against the blank
[20] = target: humanized development candidate monoclonal antibody IgG4 (hIgG4); assay: Gyrolab, mAb as capture, hIgG4 8 ng/ml
[21] = target: humanized development candidate monoclonal antibody IgG4 (hIgG4); assay: Gyrolab, mAb as capture, hIgG4 40 ng/ml
[22] = target: humanized development candidate monoclonal antibody IgG4 (hIgG4); assay: Gyrolab, mAb as capture, hIgG4 1.6 ng/ml
[23] = target: humanized development candidate monoclonal antibody IgG4 (hIgG4); assay: Gyrolab, mAb as capture, hIgG4 200 ng/ml
[24] = target: humanized development candidate monoclonal antibody IgG4 (hIgG4); assay: Gyrolab, mAb as capture, hIgG4 0.32 ng/ml
[25] = target: humanized development candidate monoclonal antibody IgG4 (hIgG4); assay: Gyrolab, mAb as capture, hIgG4 1000 ng/ml
[26] = target: humanized development candidate monoclonal antibody IgG4 (hIgG4); assay: Gyrolab, mAb as capture, hIgG4 5000 ng/ml
[27] = target: humanized development candidate monoclonal antibody IgG4 (hIgG4); assay: SPR (Biacore T200), under the same conditions as the rabbit clones, antigen 80-0 nM, 1:1 fit
[28] = target: humanized therapeutic monoclonal antibody IgG1 (hIgG1); assay: as above

**Q.** For “mouse anti-Fc monoclonal antibody clone JDC-10 (Southern Biotech, Cat. No. 9040-01)”, which ECL Signal [1] is on record?
**A.** 182

**Q.** What about the ECL Signal [2] of the same substance?
**A.** 130

**Q.** And the ECL Signal [3]?
**A.** 148

**Q.** And the S/N [4]?
**A.** 1.37

**Q.** And the ECL Signal [5]?
**A.** 756

**Q.** Which Av. Resp. [6] does the source give for “Gyrolab generic PK assay capture reagent” here?
**A.** 9.3

**Q.** And the Av. Resp. [7]?
**A.** 26.1

**Q.** And the Av. Resp. [8]?
**A.** 5.3

**Q.** And the Av. Resp. [9]?
**A.** 94.1

**Q.** What about the Av. Resp. [10] of the same substance?
**A.** 4.6

**Q.** And the Av. Resp. [11]?
**A.** 267

**Q.** And the Av. Resp. [12]?
**A.** 468

**Q.** And the S/B [13]?
**A.** 2.1

**Q.** What about the S/B [14] of the same substance?
**A.** 5.7

**Q.** And the S/B [15]?
**A.** 1.2

**Q.** And the S/B [16]?
**A.** 20.8

**Q.** And the S/B [17]?
**A.** 1

**Q.** And the S/B [18]?
**A.** 59

**Q.** And the S/B [19]?
**A.** 103

**Q.** For “mouse anti-human IgG monoclonal antibody MCA5748G (Bio-Rad)”, which Av. Resp. [20] is on record?
**A.** 18.4

**Q.** And the Av. Resp. [21]?
**A.** 33.8

**Q.** And the Av. Resp. [22]?
**A.** 14.2

**Q.** And the Av. Resp. [23]?
**A.** 86.7

**Q.** And the Av. Resp. [24]?
**A.** 13.6

**Q.** What about the Av. Resp. [25] of the same substance?
**A.** 214

**Q.** What about the Av. Resp. [26] of the same substance?
**A.** 283

**Q.** What about the pKd [27] of the same substance?
**A.** 8.80

**Q.** What about the pKd [28] of the same substance?
**A.** 8.74

Source: US20250237662A1
